{
  "source": "the RNAGym collection of RNA variant scans (doi:10.7554/elife.80360)",
  "parents": {"B1": {"name": "CPEB3 Ribozyme (parent)", "chain": "GGGGGCCACAGCAGAAGCGUUCACGUCGCGGCCCCUGUCAGAUUCUGGUGAAUCUGCGAAUUCUGCUGU"}},
  "data": [
    {"variants_of": "B1", "assay": "self-cleavage, relative activity (ratio to wild type); higher = more cleavage; co-transcriptional", "values": [
      {"variant": "GGGGGCCACAGCAGAAGCGUUCACGUCGCGGCCUCUGUCAGAUUCUGGUGAAUCUGCGAAUUCUGCAGU", "note": "[C34U U67A]", "self-cleavage": 1.01},
      {"variant": "GGGGGCCACAGCAGAAGCGUUCACGUCGCGGCCUCUGUCAGAUUCUGGUGAAUCUGCGAAUUCUGCCGU", "note": "[C34U U67C]", "self-cleavage": 1.01},
      {"variant": "GGGGGCCACAGCAGAAGCGUUCACGUCGCGGCCUCUGUCAGAUUCUGGUGAAUCUGCGAAUUCAGCUGU", "note": "[C34U U64A]", "self-cleavage": 0.974},
      {"variant": "GGGGGCCACAGCAGAAGCGUUCACGUCGCGGCCCAUGUCAGAUUCUGGUGUAUCUGCGAAUUCUGCUGU", "note": "[C35A A51U]", "self-cleavage": 0.223},
      {"variant": "GGGGGCCACAGCAGAAGCGUUCACGUCGCGGCCCGUGUCAGAUUCUGCUGAAUCUGCGAAUUCUGCUGU", "note": "[C35G G48C]", "self-cleavage": 0.531},
      {"variant": "GGGGGCCACAGCAGAAGCGUUCACGUCGCGGCCUCUGUCAGACUCUGGUGAAUCUGCGAAUUCUGCUGU", "note": "[C34U U43C]", "self-cleavage": 0.892},
      {"variant": "GGGGGCCACAGCAGAAGCGUUCACGUCGCGGCCUCUGUCAGAAUCUGGUGAAUCUGCGAAUUCUGCUGU", "note": "[C34U U43A]", "self-cleavage": 0.967},
      {"variant": "GGGGGCCACAGCAGAAGCGUUCACGUCGCGGCCCAUGUCAGAUUGUGGUGAAUCUGCGAAUUCUGCUGU", "note": "[C35A C45G]", "self-cleavage": 0.179},
      {"variant": "GGGGGCCACAGCAGAAGCGUUCACGUCGCGGCCCAUGUCAGAUUUUGGUGAAUCUGCGAAUUCUGCUGU", "note": "[C35A C45U]", "self-cleavage": 0.261},
      {"variant": "GGGGGCCACAGCAGAAGCGUUCACGUCGCGGCCCAUGUCAGAUUAUGGUGAAUCUGCGAAUUCUGCUGU", "note": "[C35A C45A]", "self-cleavage": 0.22},
      {"variant": "GGGGGCCACAGCAGAAGCGUUCACGUCGCGGCCUCUAUCAGAUUCUGGUGAAUCUGCGAAUUCUGCUGU", "note": "[C34U G37A]", "self-cleavage": 0.224},
      {"variant": "GGGGGCCACAGCAGAAGCGUUCACGUCGCGGCCCGUGUCAGAUUCUGGUGAAUUUGCGAAUUCUGCUGU", "note": "[C35G C54U]", "self-cleavage": 0.497},
      {"variant": "GGGGGCCACAGCAGAAGCGUUCACGUCGCGGCCCGUGUCAGAUUCUGGUGAAUAUGCGAAUUCUGCUGU", "note": "[C35G C54A]", "self-cleavage": 0.305},
      {"variant": "GGGGGCCACAGCAGAAGCGUUCACGUCGCGGCCCGUGUCAGAUUCUGGUGAAUCUGCGCAUUCUGCUGU", "note": "[C35G A59C]", "self-cleavage": 0.307},
      {"variant": "GGGGGCCACAGCAGAAGCGUUCACGUCGCGGCCCGUGUCAGAUUCUGGUGAAUCUGCGGAUUCUGCUGU", "note": "[C35G A59G]", "self-cleavage": 0.488},
      {"variant": "GGGGGCCACAGCAGAAGCGUUCACGUCGCGGCCCGUGUCAGAUUCUGGUGAAUCUGCGAAUUCUGGUGU", "note": "[C35G C66G]", "self-cleavage": 0.437},
      {"variant": "GGGGGCCACAGCAGAAGCGUUCACGUCGCGGCCCGUGUGAGAUUCUGGUGAAUCUGCGAAUUCUGCUGU", "note": "[C35G C39G]", "self-cleavage": 0.343},
      {"variant": "GGGGGCCACAGCAGAAGCGUUCACGUCGCGGCCCGUGUUAGAUUCUGGUGAAUCUGCGAAUUCUGCUGU", "note": "[C35G C39U]", "self-cleavage": 0.263},
      {"variant": "GGGGGCCACAGCAGAAGCGUUCACGUCGCGGCCCAAGUCAGAUUCUGGUGAAUCUGCGAAUUCUGCUGU", "note": "[C35A U36A]", "self-cleavage": 0.198},
      {"variant": "GGGGGCCACAGCAGAAGCGUUCACGUCGCGGCCUCUGUCAGAUUCUGGUGAAUCUGCGAAUCCUGCUGU", "note": "[C34U U62C]", "self-cleavage": 0.896},
      {"variant": "GGGGGCCACAGCAGAAGCGUUCACGUCGCGGCCCAUGUCAGAUUCUGGUGAAUCUGCGAAUUCUGCUAU", "note": "[C35A G68A]", "self-cleavage": 0.358},
      {"variant": "GGGGGCCACAGCAGAAGCGUUCACGUCGCGGCCCAUGUCAGAUUCUGGUGAAUCUGAGAAUUCUGCUGU", "note": "[C35A C57A]", "self-cleavage": 0.218},
      {"variant": "GGGGGCCACAGCAGAAGCGUUCACGUCGCGGCCCAUGUCAGAUUCUGGUGAAUCUGGGAAUUCUGCUGU", "note": "[C35A C57G]", "self-cleavage": 0.192},
      {"variant": "GGGGGCCACAGCAGAAGCGUUCACGUCGCGGCCCAUGUCAGAUUCUGGUGAAUCUGCGAAUUCUGCGGU", "note": "[C35A U67G]", "self-cleavage": 0.288},
      {"variant": "GGGGGCCACAGCAGAAGCGUUCACGUCGCGGCCCAUGUCAGAUUCUGGUGAAUCUGCGAAUUCUGCAGU", "note": "[C35A U67A]", "self-cleavage": 0.239},
      {"variant": "GGGGGCCACAGCAGAAGCGUUCACGUCGCGGCCCAUGUCAGAUUCUGGUGAAUCUGCGAAUUCUGCUGG", "note": "[C35A U69G]", "self-cleavage": 0.356},
      {"variant": "GGGGGCCACAGCAGAAGCGUUCACGUCGCGGCCCGUGUCAGAUUCUGGUGAAUCUGCGAAUUGUGCUGU", "note": "[C35G C63G]", "self-cleavage": 0.361},
      {"variant": "GGGGGCCACAGCAGAAGCGUUCACGUCGCGGCCCGUGUCAGAUUCUGGUGAAUCUGCGAAUUUUGCUGU", "note": "[C35G C63U]", "self-cleavage": 0.47},
      {"variant": "GGGGGCCACAGCAGAAGCGUUCACGUCGCGGCCUCUGGCAGAUUCUGGUGAAUCUGCGAAUUCUGCUGU", "note": "[C34U U38G]", "self-cleavage": 0.227},
      {"variant": "GGGGGCCACAGCAGAAGCGUUCACGUCGCGGCCUCUGACAGAUUCUGGUGAAUCUGCGAAUUCUGCUGU", "note": "[C34U U38A]", "self-cleavage": 0.935},
      {"variant": "GGGGGCCACAGCAGAAGCGUUCACGUCGCGGCCUCUGCCAGAUUCUGGUGAAUCUGCGAAUUCUGCUGU", "note": "[C34U U38C]", "self-cleavage": 0.962},
      {"variant": "GGGGGCCACAGCAGAAGCGUUCACGUCGCGGCCUCUGUCAGAUUCUGGUGAAACUGCGAAUUCUGCUGU", "note": "[C34U U53A]", "self-cleavage": 0.975},
      {"variant": "GGGGGCCACAGCAGAAGCGUUCACGUCGCGGCCCAUGUCCGAUUCUGGUGAAUCUGCGAAUUCUGCUGU", "note": "[C35A A40C]", "self-cleavage": 0.288},
      {"variant": "GGGGGCCACAGCAGAAGCGUUCACGUCGCGGCCCAUGUCUGAUUCUGGUGAAUCUGCGAAUUCUGCUGU", "note": "[C35A A40U]", "self-cleavage": 0.231},
      {"variant": "GGGGGCCACAGCAGAAGCGUUCACGUCGCGGCCCAUGUCGGAUUCUGGUGAAUCUGCGAAUUCUGCUGU", "note": "[C35A A40G]", "self-cleavage": 0.212},
      {"variant": "GGGGGCCACAGCAGAAGCGUUCACGUCGCGGCCCGUGUCACAUUCUGGUGAAUCUGCGAAUUCUGCUGU", "note": "[C35G G41C]", "self-cleavage": 0.295},
      {"variant": "GGGGGCCACAGCAGAAGCGUUCACGUCGCGGCCCGUGUCAAAUUCUGGUGAAUCUGCGAAUUCUGCUGU", "note": "[C35G G41A]", "self-cleavage": 0.294},
      {"variant": "GGGGGCCACAGCAGAAGCGUUCACGUCGCGGCCCAUGUCAGAUUCUGGUGAAUGUGCGAAUUCUGCUGU", "note": "[C35A C54G]", "self-cleavage": 0.199},
      {"variant": "GGGGGCCACAGCAGAAGCGUUCACGUCGCGGCCCGUGUCAGAUUCUAGUGAAUCUGCGAAUUCUGCUGU", "note": "[C35G G47A]", "self-cleavage": 0.477}
    ]}
  ]
}
